Measured values from patent US10159707B2, “Treatment of cancers with immunostimulatory HIV Tat derivative polypeptides” (PIN Pharma, Inc., priority 2013, dated 2018).
“Also recorded” adds a separate entry of the source.

How the values were obtained:
Assay type in all cases: in vivo, mouse
4T1 breast tumor = assay: 4T1 primary breast tumor growth in BALB/c mice
Protocol: BALB/c mice were injected (SC) with 1×10^4 4 T1, 1×10^5 TS/A or 2×10^5 SM1 cells, respectively, in the left mammary pad on day 0. […] The control group received PBS injection. […] Tumor burden (tumor volume) was measured and recorded three times weekly. Animals were sacrificed when tumors reached a volume of 15 mm in diameter and the tumors harvested and weighed.
The therapeutic effect of systemic administration of synthetic, Tat-derived compositions in murine models of breast cancer was investigated. […]

TS/A breast cancer cells = assay: TS/A breast carcinoma model, primary tumor growth
Protocol: BALB/c mice were injected (SC) with 1×10^4 4 T1, 1×10^5 TS/A or 2×10^5 SM1 cells, respectively, in the left mammary pad on day 0. Immunotherapy was performed by directly injecting a Tat derivative into the right flank at 0, 7, 12, and 17 days after establishment of tumors. The control group received PBS injection. […] Tumor burden (tumor volume) was measured and recorded three times weekly. Animals were sacrificed when tumors reached a volume of 15 mm in diameter and the tumors harvested and weighed.
The 4T1 murine mammary tumor model was chosen for study because it is an aggressive and rapidly invasive tumor; it is routinely metastatic at fourteen days post-implant by which time it is difficult to treat. To learn whether the efficacy of Nani-P2 could extend to other murine breast tumor models, two additional mammary tumors, TS/A and SM1 were studied (FIG. 6). TS/A primary mammary tumors were approximately as aggressive as 4T1, reaching a tumor volume of 15 mm at 30 days (FIG. 6A). However, the TS/A tumors were considerably more responsive to Nani-P2 treatment, with an approximate 50% suppression of growth after treatment with 0.4 ng Nani-P2, and a 40% total remission rate at 30 days.

4T1 cells = assay: Repeated dosing of Nani-P2 and cyclophosphamide in 4T1 tumor-bearing mice
Protocol: Four groups of 10 BALB/c mice were implanted with 1×10^4 4 T1 cells SC into the mammary fat pad. Treatment was initiated when tumor diameters reached 4-5 mm, on day 10. Control mice were injected IV with PBS at 3 days intervals, while alternating treatment mice received 3 doses of drug every 3 days in rotating 10 day cycles. Tumor burden (tumor size mm^3) was calculated using a standard formula. CY (cyclophosphamide alone) mice were injected IP weekly with 80 mg/kg per mouse beginning on day 10. Cy/Nani-P2 (cyclophosphamide first followed by Nani-P2) mice were first injected IP with cyclophosphamide (80 mg/kg) at 3 days intervals for three doses starting at day 10 and then injected IV with Nani-P2 (40 ng) at 3 days intervals for three doses in rotation. The cycle of 3 doses of CY followed by 3 doses of Nani-P2 was repeated until day 50. Nani-P2/CY (Nani-P2 first followed by cyclophosphamide) mice were first injected IV with Nani-P2 (40 ng) at 3 day intervals for 3 doses starting on day 10 and then injected i.p. with cyclophosphamide at 3 day intervals in rotation. The cycle of 3 doses of Nani-P2 followed by 3 doses of CY was repeated until day 50.

[1] = Nani-P2 alternating with cyclophosphamide

B1: Nani-P2: Tat derivative polypeptide SEQ ID NO:3; TF SIVagmVer, cysteine-rich HIV-1, C-terminal SIVagmVer (protein)
chain: MDPKGEEDQDVSHQDLIKQYRKPRTACNNCYCKKCCFHCYACFLRKGLGITYHAFRTRRKKIASADRIPVPQQSISIRGRDSQTTQESQKKVEEQAKANLRISRKNLGDETRGPVGAGN
modifications: Tat derivative polypeptide
notes: TF SIVagmVer, cysteine-rich HIV-1, C-terminal SIVagmVer
4T1 tumor volume difference versus control, 4 ng (4T1 breast tumor; 4 ng per mouse, four times over 21 days, p<0.1 as printed): highly significant
mice in complete remission, disease-free at 50 days (4T1 breast tumor; 40 ng IV weekly over three weeks from day 14): one animal underwent a complete remission; also recorded: One of 10
mice with regression of tumor at the initial treatment on day 14 (4T1 breast tumor; 40 ng IV, established 4T1 tumors): 7/10
4T1 tumor volume difference versus control, 40 ng (4T1 breast tumor; 40 ng per mouse, four times over 21 days, p<0.01): highly significant
primary tumor burden of established 4T1 tumors versus PBS control (4T1 breast tumor; 40 ng weekly for three weeks beginning at day 14 (IV), p<0.01): statistically significant benefit in primary tumor suppression; also recorded: highly significant
4T1 tumor volume difference versus control starting at day 22 (4T1 breast tumor; 400 ng SC days 0, 7, 14, 21, p<0.01): highly significant
4T1 tumor burden versus PBS control (4T1 breast tumor; 400 ng partially-purified, SC, days 0, 7, 14, 21 (Nani-P3 also 2 μg), from day 15, p<0.05): significantly reduced tumor burden; also recorded: significant
average decrease of 4T1 tumor burden at maximal effect (4T1 breast tumor; SC therapy begun on day 13, tumors about 5 mm in diameter): 52%
average shrinkage of 4T1 tumor burden (4T1 breast tumor; SC therapy initiated on day 0 after tumor cell injection): 53%
effect of increasing the dose to 400 ng and 2 μg (4T1 breast tumor; SC, compared with 40 ng, data not shown): no further anti-tumor efficacy
difference in primary tumor burden between Nani-P2 and Nani-P1-treated tumors (4T1 breast tumor; day 21 (final dosing), 400 ng SC, p<0.01): 18 mm^3
dose giving significant 4T1 tumor growth inhibition (4T1 breast tumor; highly-purified, SC): ≤ 0.4 ng
4T1 breast tumor growth inhibitory effect, dose relation (4T1 breast tumor; highly-purified, SC, 0.4 ng to 40 ng per dose): dose-dependent
suppression of TS/A tumor growth (TS/A breast cancer cells; 0.4 ng SC): ~50%
TS/A primary anti-cancer difference versus control, lowest dose (TS/A breast cancer cells; 0.4 ng SC, p<0.01): highly significant
TS/A primary anti-cancer difference versus control, 40 ng (TS/A breast cancer cells; 40 ng SC, p<0.01): highly significant
TS/A total remission rate at 30 days (TS/A breast cancer cells; SC Nani-P2, 30 days): 40%
mice in partial remission at day 50 (4T1 cells; [1]): 9/10
mice in total remission at day 50 (4T1 cells; [1]): 3/10
survival benefit versus weekly cyclophosphamide (4T1 cells; Nani-P2 bolus treatment alternating with cyclophosphamide, p=0.0001): highly statistically significant
